Data reported in patent publication US8470548 (INTRA CELLULAR THERAPIES, dated 2013).

Columns and labels:
[1] = target: T1, third intracellular loop of the rat 5-HT1B receptor (amino acids 226-311), GAL4 DNA-binding domain fusion … (rat, UniProt P04386 1-147; P28564 226-311); test: yeast two-hybrid, co-transformation of p11 prey and bait, -LWH medium and X-gal overlay
T1 construct: Yeast two-hybrid bait in a pAS2-derived vector; also called 5-HT1B receptor-bait; 5-HT1B receptors

[2] = target: T2, third intracellular loop of the 5-HT1A receptor (amino acids 218-345), bait construct (rat, UniProt P04386 1-147; P19327 218-345); test: yeast two-hybrid, growth on -LWH medium and X-gal overlay
T2 construct: Yeast two-hybrid bait in the pAS2-derived vector

[3] = target: bait control vector (empty plasmid) (UniProt P04386 1-147); test: as above
[4] = target: T3, third intracellular loop of the 5-HT6 receptor (amino acids 209-265), bait construct (rat, UniProt P04386 1-147; P31388 209-265); test: as above
T3 construct: Yeast two-hybrid bait in the pAS2-derived vector

B1: p11 (rat; prey clone from the pACT2 rat brain cDNA library) (other, UniProt P05943 1-95, looked up)
chain: MPSQMEHAMETMMLTFHRFAGEKNYLTKEDLRVLMEREFPGFLENQKDPLAVDKIMKDLDQCRDGKVGFQSFLSLVAGLIIACNDYFVVHMKQKK
notes: Yeast two-hybrid prey; identified by BLAST search of the prey inserts; also called p11 prey; annexin-II light chain; not shown: fusion partner encoded by the pACT2 prey vector
binding result [1]: binds
binding result [2]: no binding
binding result [3]: no binding
binding result [4]: no binding
